One block for each substance: values may come before it.
Columns and labels:
CXCR4 [1] = biological target: CXCR4 (UniProt P61073)
CXCR4 [2] = biological target: CXCR4 (UniProt P61073); remark: listed apart in the source
CXCR4 [3] = biological target: CXCR4 (UniProt P61073); remark: listed apart in the source

UniProt P61073, sequence (P61073 whole entry): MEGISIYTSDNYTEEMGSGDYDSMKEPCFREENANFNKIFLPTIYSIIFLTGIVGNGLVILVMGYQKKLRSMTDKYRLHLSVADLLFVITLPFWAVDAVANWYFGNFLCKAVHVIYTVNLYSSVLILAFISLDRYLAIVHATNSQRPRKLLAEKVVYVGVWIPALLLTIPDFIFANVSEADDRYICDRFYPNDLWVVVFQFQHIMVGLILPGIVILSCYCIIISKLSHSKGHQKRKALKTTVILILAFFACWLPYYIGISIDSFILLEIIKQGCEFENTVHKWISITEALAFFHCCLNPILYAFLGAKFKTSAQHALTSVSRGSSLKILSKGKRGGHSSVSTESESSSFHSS

Emax of IP accumulation, COS-7 cells with CXCR4-eYFP and chimeric Gαqi protein, normalized to CXCL12 wt (CXCR4 [1]): 100%
concentration of the best response, Transwell migration of Jurkat cells (endogenous CXCR4), 2 h, dilution series (CXCR4 [2]): 30 nM
Substance: CXCL12 wild type (from UniProt P48061-2 22-89) (ligand)

fold decrease in Jurkat cell migration (endogenous CXCR4) compared with CXCL12 wt, Transwell assay (CXCR4 [3]): 11 fold
Substance: [S4V]-[V49A]-CXCL12 (from UniProt P48061-2 22-89) (ligand)

fold regain of migration potential against compound 4, Jurkat cells (endogenous CXCR4), Transwell assay (CXCR4 [3]): 2 fold
Substance: [S4V]-[V49A]-CXCL12-GPLS (from UniProt P48061-2 22-89) (ligand)

concentration of the migration maximum, Transwell migration of Jurkat cells (endogenous CXCR4), 2 h, dilution series (CXCR4 [2]): 700 nM
Substance: [S4V]-[V49A]-CXCL12-MMPCS-SBP (from UniProt P48061-2 22-89) (ligand)

From article PMC8539926
